Measurements reported in US20110097270A1 (published 2011).

Molecular target: hepatitis B virus (HBV) inoculum (hepatitis B virus)
Assay: cell-based or functional assay

B1: HBV#8 Fab (Fab, V domains shown)
VH: EVQLLESGPGLVKPSQTLSLTCAVSGAFMTSDYLYWSWLRQPPGKGPEWIGGIYTTGRSHYNPSLRGRATLSVDTSKNQFSLELNSVTAADTAVYYCARGQYHNWGPSLFDYYNYYYMDVWGKGTTVTVSS
VL: AAELTQSPSSLSASVGDRVTITCRASQDISNYLAWYQQKPGKAPKLLIYSASRLQSGVPSRFSGSGSGTDYTLTLSSLHPEDSATYYCHQYHSAPWTFGQGTKVEIKR
  P/N of HBsAg in cell supernatant (RIA, day 12) at MAb 0.01 µg ml^-1: 82 P/N ratio
  P/N of HBsAg in cell supernatant (RIA, day 12) at MAb 0.1 µg ml^-1: 83.3 P/N ratio
  P/N of HBsAg in cell supernatant (RIA, day 12) at MAb 1.0 µg ml^-1: 55.8 P/N ratio
  P/N of HBsAg in cell supernatant (RIA, day 12) at MAb 10.0 µg ml^-1: 4.1 P/N ratio
